Earlier results on two substances are cited in article PMC12378658.

In one data set the target is TSLPR (Homo sapiens) (UniProt Q9HC73).
Data set [1] concerns the target TSLP:TSLPR complex (Homo sapiens) (UniProt Q969D9).

UniProt Q9HC73, sequence (Q9HC73 23-231): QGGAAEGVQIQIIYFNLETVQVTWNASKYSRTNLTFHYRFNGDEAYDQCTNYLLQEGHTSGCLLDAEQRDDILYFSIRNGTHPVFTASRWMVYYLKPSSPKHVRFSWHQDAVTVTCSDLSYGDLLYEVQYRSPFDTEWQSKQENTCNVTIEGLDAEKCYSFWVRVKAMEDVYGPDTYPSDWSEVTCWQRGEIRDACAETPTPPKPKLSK

By Kd is commonly meant a measure of binding affinity in units of concentration. For TSLP (from UniProt Q969D9), in the data set with TSLPR (Homo sapiens), the Kd is 32 nM.
In the case of IL-7Rα (from UniProt P16871), the Kd in data set [1] is 29 nM.
